# In patent US4285932A, “Enzyme derivatives for use in the treatment of venous thrombosis” (Beecham Group Limited, priority 1978, dated 1981):
# Test system: Human Plasmin
# Test: Deacylation (hydrolysis) of active-site blocked human plasmin, pseudo-first order rate constant followed by regain of activity on chromogenic substrate S-2251
# Type: biochemical
# Settings: active site serine substituted human plasmin; pH 7.4, 37° C.
# Protocol: The pseudo-first order rate constant is determined by hydrolysing the enzyme derivative under physiological conditions i.e. in isotonic aqueous media at pH 7.4 and at 37° C. At regular intervals aliquots are withdrawn and incubated with a chromogenic or fluorogenic protease substrate such as S-2251 (H-D-Val-Leu-Lys-p-nitroanilide 2HCl) and the rate of conversion of the substrate measured.
# The hydrolysis is followed until such time as the rate of conversion of substrate reaches a maximum. The rate constant k is then calculated by plotting: […]
# loge (1-^At /Amax) against t
# where Amax the maximum rate at which an aliquot converts substrate and At is the rate at which an aliquot converts substrate at time t.
row,Molecule,"Deacylation rate, Human Plasmin K sec^-1 × 10^4 [sec^-1 × 10^4]"
1,"N-methyl-p-guanidinobenzoyl: human plasmin, active site serine blocked by N-methyl-p-guanidinobenzoyl (protein, UniProt P00747 20-580; P00747 581-810, looked up, plasmin N-methyl-p-guanidinobenzoyl acylated active site) Plasmin heavy chain A: EPLDDYVNTQGASLFSVTKKQLGAGSIEECAAKCEEDEEFTCRAFQYHSKEQQCVIMAENRKSSIIIRMRDVVLFEKKVYLSECKTGNGKNYRGTMSKTKNGITCQKWSSTSPHRPRFSPATHPSEGLEENYCRNPDNDPQGPWCYTTDPEKRYDYCDILECEEECMHCSGENYDGKISKTMSGLECQAWDSQSPHAHGYIPSKFPNKNLKKNYCRNPDRELRPWCFTTDPNKRWELCDIPRCTTPPPSSGPTYQCLKGTGENYRGNVAVTVSGHTCQHWSAQTPHTHNRTPENFPCKNLDENYCRNPDGKRAPWCHTTNSQVRWEYCKIPSCDSSPVSTEQLAPTAPPELTPVVQDCYHGDGQSYRGTSSTTTTGKKCQSWSSMTPHRHQKTPENYPNAGLTMNYCRNPDADKGPWCFTTDPSVRWEYCNLKKCSGTEASVVAPPPVVLLPDVETPSEEDCMFGNGKGYRGKRATTVTGTPCQDWAAQEPHRHSIFTPETNPRAGLEKNYCRNPDGDVGGPWCYTTNPRKLYDYCDVPQCAAPSFDCGKPQVEPKKCPGR Plasmin light chain B: VVGGCVAHPHSWPWQVSLRTRFGMHFCGGTLISPEWVLTAAHCLEKSPRPSSYKVILGAHQEVNLEPHVQEIEVSRLFLEPTRKDIALLKLSSPAVITDKVIPACLPSPNYVVADRTECFITGWGETQGTFGAGLLKEAQLPVIENKVCNRYEFLNGRVQSTELCAGHLAGGTDSCQGDSGGPLVCFEKDKYILQGVTSWGLGCARPNKPGVYVRVSRFVTWIEGVMRNN",2.0
2,"3,3 Dimethylacryloyl: human plasmin, active site serine blocked by 3,3-dimethylacryloyl (acylating agent of Example 4) (protein, UniProt P00747 20-580; P00747 581-810, looked up, plasmin 3,3-dimethylacryloyl acylated active site) Plasmin heavy chain A: EPLDDYVNTQGASLFSVTKKQLGAGSIEECAAKCEEDEEFTCRAFQYHSKEQQCVIMAENRKSSIIIRMRDVVLFEKKVYLSECKTGNGKNYRGTMSKTKNGITCQKWSSTSPHRPRFSPATHPSEGLEENYCRNPDNDPQGPWCYTTDPEKRYDYCDILECEEECMHCSGENYDGKISKTMSGLECQAWDSQSPHAHGYIPSKFPNKNLKKNYCRNPDRELRPWCFTTDPNKRWELCDIPRCTTPPPSSGPTYQCLKGTGENYRGNVAVTVSGHTCQHWSAQTPHTHNRTPENFPCKNLDENYCRNPDGKRAPWCHTTNSQVRWEYCKIPSCDSSPVSTEQLAPTAPPELTPVVQDCYHGDGQSYRGTSSTTTTGKKCQSWSSMTPHRHQKTPENYPNAGLTMNYCRNPDADKGPWCFTTDPSVRWEYCNLKKCSGTEASVVAPPPVVLLPDVETPSEEDCMFGNGKGYRGKRATTVTGTPCQDWAAQEPHRHSIFTPETNPRAGLEKNYCRNPDGDVGGPWCYTTNPRKLYDYCDVPQCAAPSFDCGKPQVEPKKCPGR Plasmin light chain B: VVGGCVAHPHSWPWQVSLRTRFGMHFCGGTLISPEWVLTAAHCLEKSPRPSSYKVILGAHQEVNLEPHVQEIEVSRLFLEPTRKDIALLKLSSPAVITDKVIPACLPSPNYVVADRTECFITGWGETQGTFGAGLLKEAQLPVIENKVCNRYEFLNGRVQSTELCAGHLAGGTDSCQGDSGGPLVCFEKDKYILQGVTSWGLGCARPNKPGVYVRVSRFVTWIEGVMRNN",0.69
3,"p-Acetamidobenzoyl: human plasmin, active site serine blocked by p-acetamidobenzoyl (acylating agent of Example 18) (protein, UniProt P00747 20-580; P00747 581-810, looked up, plasmin p-acetamidobenzoyl acylated active site) Plasmin heavy chain A: EPLDDYVNTQGASLFSVTKKQLGAGSIEECAAKCEEDEEFTCRAFQYHSKEQQCVIMAENRKSSIIIRMRDVVLFEKKVYLSECKTGNGKNYRGTMSKTKNGITCQKWSSTSPHRPRFSPATHPSEGLEENYCRNPDNDPQGPWCYTTDPEKRYDYCDILECEEECMHCSGENYDGKISKTMSGLECQAWDSQSPHAHGYIPSKFPNKNLKKNYCRNPDRELRPWCFTTDPNKRWELCDIPRCTTPPPSSGPTYQCLKGTGENYRGNVAVTVSGHTCQHWSAQTPHTHNRTPENFPCKNLDENYCRNPDGKRAPWCHTTNSQVRWEYCKIPSCDSSPVSTEQLAPTAPPELTPVVQDCYHGDGQSYRGTSSTTTTGKKCQSWSSMTPHRHQKTPENYPNAGLTMNYCRNPDADKGPWCFTTDPSVRWEYCNLKKCSGTEASVVAPPPVVLLPDVETPSEEDCMFGNGKGYRGKRATTVTGTPCQDWAAQEPHRHSIFTPETNPRAGLEKNYCRNPDGDVGGPWCYTTNPRKLYDYCDVPQCAAPSFDCGKPQVEPKKCPGR Plasmin light chain B: VVGGCVAHPHSWPWQVSLRTRFGMHFCGGTLISPEWVLTAAHCLEKSPRPSSYKVILGAHQEVNLEPHVQEIEVSRLFLEPTRKDIALLKLSSPAVITDKVIPACLPSPNYVVADRTECFITGWGETQGTFGAGLLKEAQLPVIENKVCNRYEFLNGRVQSTELCAGHLAGGTDSCQGDSGGPLVCFEKDKYILQGVTSWGLGCARPNKPGVYVRVSRFVTWIEGVMRNN",2.70
4,"Acetylsalicycloyl: human plasmin, active site serine blocked by acetylsalicyloyl (acylating agent of Example 7) (protein, UniProt P00747 20-580; P00747 581-810, looked up, plasmin acetylsalicyloyl acylated active site) Plasmin heavy chain A: EPLDDYVNTQGASLFSVTKKQLGAGSIEECAAKCEEDEEFTCRAFQYHSKEQQCVIMAENRKSSIIIRMRDVVLFEKKVYLSECKTGNGKNYRGTMSKTKNGITCQKWSSTSPHRPRFSPATHPSEGLEENYCRNPDNDPQGPWCYTTDPEKRYDYCDILECEEECMHCSGENYDGKISKTMSGLECQAWDSQSPHAHGYIPSKFPNKNLKKNYCRNPDRELRPWCFTTDPNKRWELCDIPRCTTPPPSSGPTYQCLKGTGENYRGNVAVTVSGHTCQHWSAQTPHTHNRTPENFPCKNLDENYCRNPDGKRAPWCHTTNSQVRWEYCKIPSCDSSPVSTEQLAPTAPPELTPVVQDCYHGDGQSYRGTSSTTTTGKKCQSWSSMTPHRHQKTPENYPNAGLTMNYCRNPDADKGPWCFTTDPSVRWEYCNLKKCSGTEASVVAPPPVVLLPDVETPSEEDCMFGNGKGYRGKRATTVTGTPCQDWAAQEPHRHSIFTPETNPRAGLEKNYCRNPDGDVGGPWCYTTNPRKLYDYCDVPQCAAPSFDCGKPQVEPKKCPGR Plasmin light chain B: VVGGCVAHPHSWPWQVSLRTRFGMHFCGGTLISPEWVLTAAHCLEKSPRPSSYKVILGAHQEVNLEPHVQEIEVSRLFLEPTRKDIALLKLSSPAVITDKVIPACLPSPNYVVADRTECFITGWGETQGTFGAGLLKEAQLPVIENKVCNRYEFLNGRVQSTELCAGHLAGGTDSCQGDSGGPLVCFEKDKYILQGVTSWGLGCARPNKPGVYVRVSRFVTWIEGVMRNN",4.70
5,"O-Anisoyl: human plasmin, active site serine blocked by o-anisoyl (acylating agent of Example 15) (protein, UniProt P00747 20-580; P00747 581-810, looked up, plasmin o-anisoyl acylated active site) Plasmin heavy chain A: EPLDDYVNTQGASLFSVTKKQLGAGSIEECAAKCEEDEEFTCRAFQYHSKEQQCVIMAENRKSSIIIRMRDVVLFEKKVYLSECKTGNGKNYRGTMSKTKNGITCQKWSSTSPHRPRFSPATHPSEGLEENYCRNPDNDPQGPWCYTTDPEKRYDYCDILECEEECMHCSGENYDGKISKTMSGLECQAWDSQSPHAHGYIPSKFPNKNLKKNYCRNPDRELRPWCFTTDPNKRWELCDIPRCTTPPPSSGPTYQCLKGTGENYRGNVAVTVSGHTCQHWSAQTPHTHNRTPENFPCKNLDENYCRNPDGKRAPWCHTTNSQVRWEYCKIPSCDSSPVSTEQLAPTAPPELTPVVQDCYHGDGQSYRGTSSTTTTGKKCQSWSSMTPHRHQKTPENYPNAGLTMNYCRNPDADKGPWCFTTDPSVRWEYCNLKKCSGTEASVVAPPPVVLLPDVETPSEEDCMFGNGKGYRGKRATTVTGTPCQDWAAQEPHRHSIFTPETNPRAGLEKNYCRNPDGDVGGPWCYTTNPRKLYDYCDVPQCAAPSFDCGKPQVEPKKCPGR Plasmin light chain B: VVGGCVAHPHSWPWQVSLRTRFGMHFCGGTLISPEWVLTAAHCLEKSPRPSSYKVILGAHQEVNLEPHVQEIEVSRLFLEPTRKDIALLKLSSPAVITDKVIPACLPSPNYVVADRTECFITGWGETQGTFGAGLLKEAQLPVIENKVCNRYEFLNGRVQSTELCAGHLAGGTDSCQGDSGGPLVCFEKDKYILQGVTSWGLGCARPNKPGVYVRVSRFVTWIEGVMRNN",1.82

# Same assay, conditions: conditions specified for deacylation (isotonic aqueous media, pH 7.4, 37° C.)
row,Molecule,time for quantitative reactivation to free plasmin
1,"p-Anisoyl Human Plasmin (protein, UniProt P00747 20-580; P00747 581-810, looked up, Plasmin active-site p-anisoyl acylated, human plasmin acylated at the catalytic site with p-amidinophenyl p'anisate) Plasmin heavy chain A: EPLDDYVNTQGASLFSVTKKQLGAGSIEECAAKCEEDEEFTCRAFQYHSKEQQCVIMAENRKSSIIIRMRDVVLFEKKVYLSECKTGNGKNYRGTMSKTKNGITCQKWSSTSPHRPRFSPATHPSEGLEENYCRNPDNDPQGPWCYTTDPEKRYDYCDILECEEECMHCSGENYDGKISKTMSGLECQAWDSQSPHAHGYIPSKFPNKNLKKNYCRNPDRELRPWCFTTDPNKRWELCDIPRCTTPPPSSGPTYQCLKGTGENYRGNVAVTVSGHTCQHWSAQTPHTHNRTPENFPCKNLDENYCRNPDGKRAPWCHTTNSQVRWEYCKIPSCDSSPVSTEQLAPTAPPELTPVVQDCYHGDGQSYRGTSSTTTTGKKCQSWSSMTPHRHQKTPENYPNAGLTMNYCRNPDADKGPWCFTTDPSVRWEYCNLKKCSGTEASVVAPPPVVLLPDVETPSEEDCMFGNGKGYRGKRATTVTGTPCQDWAAQEPHRHSIFTPETNPRAGLEKNYCRNPDGDVGGPWCYTTNPRKLYDYCDVPQCAAPSFDCGKPQVEPKKCPGR Plasmin light chain B: VVGGCVAHPHSWPWQVSLRTRFGMHFCGGTLISPEWVLTAAHCLEKSPRPSSYKVILGAHQEVNLEPHVQEIEVSRLFLEPTRKDIALLKLSSPAVITDKVIPACLPSPNYVVADRTECFITGWGETQGTFGAGLLKEAQLPVIENKVCNRYEFLNGRVQSTELCAGHLAGGTDSCQGDSGGPLVCFEKDKYILQGVTSWGLGCARPNKPGVYVRVSRFVTWIEGVMRNN",approximately two
